Laboratory results as given in patent US20260327304 (published 2026).

T1: cynomolgus monkey CD3 protein (cynomolgus monkey)
T1 chain: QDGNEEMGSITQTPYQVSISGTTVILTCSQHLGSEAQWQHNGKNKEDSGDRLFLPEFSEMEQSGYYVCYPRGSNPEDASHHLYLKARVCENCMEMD

T2: human CD3 protein (human)
T2 chain: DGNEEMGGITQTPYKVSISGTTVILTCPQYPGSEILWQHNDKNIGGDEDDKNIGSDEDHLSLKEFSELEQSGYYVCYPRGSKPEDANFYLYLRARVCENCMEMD


Molecular target: T1, cynomolgus monkey CD3 protein
Experiment: BLI

Kd [nM]	Binder
28.2	huB1G5-ScFv-2VHH (CD3 arm) (antibody, ACRO CDD-C52W4) EVQLVESGGGLVQPGGSLKLSCAASGFTFSTYAMNWVRQAPGKGLEWVGRIRSKYNNYATYYADSVKDRFTISRDDSKNTLYLQMNSLKTEDTAVYYCTRHGNFGNSYVSWFAYWGQGTTVTVSSGGGGSGGGGSGGGGSQAVVTQEPSLTVSPGGTVTLTCRSSTGAVTTSNYANWVQQKPGQAPRGLIGGTNKRAPGVPARFSGSLLGGKAALTLSGAQPEDEAEYFCALWYSNLWVFGGGTKLTVLG
6.92	huB1G5-CD3-2VHH (CD3 arm) (antibody, V domains shown, ACRO CDD-C52W4) VH: EVQLVESGGGLVQPGGSLKLSCAASGFTFSTYAMNWVRQAPGKGLEWVGRIRSKYNNYATYYADSVKDRFTISRDDSKNTLYLQMNSLKTEDTAVYYCTRHGNFGNSYVSWFAYWGQGTTVTVSS VL: QAVVTQEPSLTVSPGGTVTLTCRSSTGAVTTSNYANWVQQKPGQAPRGLIGGTNKRAPGVPARFSGSLLGGKAALTLSGAQPEDEAEYFCALWYSNLWVFGGGTKLTVL
6.59	huB1G5-CD3Fab (CD3 arm) (antibody, V domains shown, ACRO CDD-C52W4) VH: EVQLVESGGGLVQPGGSLKLSCAASGFTFSTYAMNWVRQAPGKGLEWVGRIRSKYNNYATYYADSVKDRFTISRDDSKNTLYLQMNSLKTEDTAVYYCTRHGNFGNSYVSWFAYWGQGTTVTVSS VL: QAVVTQEPSLTVSPGGTVTLTCRSSTGAVTTSNYANWVQQKPGQAPRGLIGGTNKRAPGVPARFSGSLLGGKAALTLSGAQPEDEAEYFCALWYSNLWVFGGGTKLTVL

Molecular target: T2, human CD3 protein
Experiment: BLI

Kd [nM]	Binder
35.7	huB1G5-ScFv-2VHH (CD3 arm) (antibody) EVQLVESGGGLVQPGGSLKLSCAASGFTFSTYAMNWVRQAPGKGLEWVGRIRSKYNNYATYYADSVKDRFTISRDDSKNTLYLQMNSLKTEDTAVYYCTRHGNFGNSYVSWFAYWGQGTTVTVSSGGGGSGGGGSGGGGSQAVVTQEPSLTVSPGGTVTLTCRSSTGAVTTSNYANWVQQKPGQAPRGLIGGTNKRAPGVPARFSGSLLGGKAALTLSGAQPEDEAEYFCALWYSNLWVFGGGTKLTVLG
26.3	huB1G5-CD3Fab (CD3 arm) (antibody, V domains shown) VH: EVQLVESGGGLVQPGGSLKLSCAASGFTFSTYAMNWVRQAPGKGLEWVGRIRSKYNNYATYYADSVKDRFTISRDDSKNTLYLQMNSLKTEDTAVYYCTRHGNFGNSYVSWFAYWGQGTTVTVSS VL: QAVVTQEPSLTVSPGGTVTLTCRSSTGAVTTSNYANWVQQKPGQAPRGLIGGTNKRAPGVPARFSGSLLGGKAALTLSGAQPEDEAEYFCALWYSNLWVFGGGTKLTVL
22.6	huB1G5-CD3-2VHH (CD3 arm) (antibody, V domains shown) VH: EVQLVESGGGLVQPGGSLKLSCAASGFTFSTYAMNWVRQAPGKGLEWVGRIRSKYNNYATYYADSVKDRFTISRDDSKNTLYLQMNSLKTEDTAVYYCTRHGNFGNSYVSWFAYWGQGTTVTVSS VL: QAVVTQEPSLTVSPGGTVTLTCRSSTGAVTTSNYANWVQQKPGQAPRGLIGGTNKRAPGVPARFSGSLLGGKAALTLSGAQPEDEAEYFCALWYSNLWVFGGGTKLTVL
